Experimental data from article doi:10.1101/774158.

Key:
[1] = molecular target: CDA-ZnF-KLF1 E321K (mouse) (UniProt P46099); test: EMSA
WT-ZnF-KLF1 (mouse) = WT-ZnF-KLF1 (mouse) (UniProt P46099); test: EMSA
Sequence of WT-ZnF-KLF1 (mouse) (P46099 275-358): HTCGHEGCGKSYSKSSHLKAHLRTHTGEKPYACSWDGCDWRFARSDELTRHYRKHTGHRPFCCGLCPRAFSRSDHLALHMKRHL

Sequence of CDA-ZnF-KLF1 E321K (mouse) (P46099 275-358 E321K): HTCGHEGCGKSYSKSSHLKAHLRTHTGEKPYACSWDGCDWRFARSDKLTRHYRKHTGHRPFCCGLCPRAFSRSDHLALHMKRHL

## beta-globin site
[1]
  Kd: 238 µM
WT-ZnF-KLF1 (mouse)
  Kd: 0.548 µM
